# According to IntAct's records for PubMed 21743457:
# B1: Cell division control protein 13 (Saccharomyces cerevisiae), P32797 (parent)
# chain: MDTLEEPECPPHKNRIFVSSSKDFEGYPSKAIVPVQFVALLTSIHLTETKCLLGFSNFERRGDQSQEDQYLIKLKFKDRGSERLARITISLLCQYFDIELPDLDSDSGASPTVILRDIHLERLCFSSCKALYVSKHGNYTLFLEDIKPLDLVSVISTISTKSTNSSKHSSSELISECDLNNSLVDIFNNLIEMNRDEKNRFKFVKLIHYDIELKKFVQDQQKVLSQKSKAAAINPFFVPNRLGIPYIESQNEFNSQLMTLNVDEPTTDISNMGEEMHDSADPIEDSDSSTTSSTGKYFSSKSYIQSQTPERKTSVPNNWHDDDSGSKRKRKLSFHSPNASSIRKAISYEQLSLASVGSVERLEGKIVGMNPPQFASINEFKYCTLKLYFTQLLPNVPDKVLVPGVNCIEIVIPTRERICELFGVLNCQSDKISDILLLEKPDRISVEVERILWDNDKTASPGMAVWSLKNISTDTQAQAQVQVPAQSSASIDPSRTRMSKMARKDPTIEFCQLGLDTFETKYITMFGMLVSCSFDKPAFISFVFSDFTKNDIVQNYLYDRYLIDYENKLELNEGFKAIMYKNQFETFDSKLRKIFNNGLRDLQNGRDENLSQYGIVCKMNIKVKMYNGKLNAIVRECEPVPHSQISSIASPSQCEHLRLFYQRAFKRIGESAISRYFEEYRRFFPIHRNGSHLAKLRFDEVKHEPKKSPTTPALAEHIPDLNADVSSFDVKFTDISSLLDSSARLPRPQQTHKSNTLYSCEGRIIAIEYHASDLCFHITNELPLLQTRGLAPERVLQLHIITSKNFAYFFNRSSAYLQRQPLEEKYTQLAQFLGHSFKFNITSSLTLFPDTTVALQIWCPIECTFRELQQQLAHPKVAAAPDSGSLDCAINATVNPLRLLAAQNGVTVKKEEDNDDDAGAVPTS
# B2: Cell division control protein 13 (Saccharomyces cerevisiae), P32797 (parent)
# chain: B1 chain
# partner: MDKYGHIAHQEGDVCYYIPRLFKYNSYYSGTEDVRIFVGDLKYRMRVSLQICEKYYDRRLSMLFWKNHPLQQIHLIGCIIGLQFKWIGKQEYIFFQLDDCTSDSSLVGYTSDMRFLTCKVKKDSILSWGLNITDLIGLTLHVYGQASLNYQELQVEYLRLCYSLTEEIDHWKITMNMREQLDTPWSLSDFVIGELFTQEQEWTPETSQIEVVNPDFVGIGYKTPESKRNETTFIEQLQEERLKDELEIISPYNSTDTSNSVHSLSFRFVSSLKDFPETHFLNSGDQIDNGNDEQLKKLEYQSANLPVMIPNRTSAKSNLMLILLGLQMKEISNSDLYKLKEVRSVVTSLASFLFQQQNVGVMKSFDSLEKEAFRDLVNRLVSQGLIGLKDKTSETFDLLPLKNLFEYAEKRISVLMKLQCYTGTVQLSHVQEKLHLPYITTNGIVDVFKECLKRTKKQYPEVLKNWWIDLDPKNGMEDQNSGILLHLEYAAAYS
# Variants of: B1
# Conditions: with smt3_yeast SMT3, Q12306
# Sequence of smt3_yeast SMT3, Q12306 (Q12306 whole entry): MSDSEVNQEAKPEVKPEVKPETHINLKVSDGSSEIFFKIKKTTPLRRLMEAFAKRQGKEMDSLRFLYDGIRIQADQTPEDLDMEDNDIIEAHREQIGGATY
row,effect of a mutation on the interaction,Variant
1,disrupting interaction,K909R

# Variants of: B2
# Conditions: with stn1_yeast STN1, P38960
row,effect of a mutation on the interaction,Variant
1,decreasing interaction,K909R
